According to US20130336893A1 (Sanofi, published 2013):
*1 amine or outer side, *2 acyl side, *3 side chain or, on linkers, in order; H or OH if unused. Where no end group is shown, it is not given here. Side-chain parts run from the residue outwards. [ ]: non-standard residue; d: D form. The star is where a group is joined. γGlu = O=C(O)[C@H](CCC(=O)[*:2])N[*:1]; Palmitoyl = CCCCCCCCCCCCCCCC(=O)*; Orn = NCCC[C@H](N)C(=O)O; Dab = NCC[C@H](N)C(=O)O; Dap = NC[C@H](N)C(=O)O

B1: SEQ ID NO: (88) (peptide)
peptide: H[dS]QGTFTSDLSKQMESRRAQDFIEWLKSGGPSSGAPPPS[Orn]([γGlu-Palmitoyl])-NH2
modifications: N-terminus assumed
SMILES: CCCCCCCCCCCCCCCC(=O)N[C@@H](CCC(=O)NCCC[C@H](NC(=O)[C@H](CO)NC(=O)[C@@H]1CCCN1C(=O)[C@@H]1CCCN1C(=O)[C@@H]1CCCN1C(=O)[C@H](C)NC(=O)CNC(=O)[C@H](CO)NC(=O)[C@H](CO)NC(=O)[C@@H]1CCCN1C(=O)CNC(=O)CNC(=O)[C@H](CO)NC(=O)[C@H](CCCCN)NC(=O)[C@H](CC(C)C)NC(=O)[C@H](Cc1c[nH]c2ccccc12)NC(=O)[C@H](CCC(=O)O)NC(=O)[C@@H](NC(=O)[C@H](Cc1ccccc1)NC(=O)[C@H](CC(=O)O)NC(=O)[C@H](CCC(N)=O)NC(=O)[C@H](C)NC(=O)[C@H](CCCNC(=N)N)NC(=O)[C@H](CCCNC(=N)N)NC(=O)[C@H](CO)NC(=O)[C@H](CCC(=O)O)NC(=O)[C@H](CCSC)NC(=O)[C@H](CCC(N)=O)NC(=O)[C@H](CCCCN)NC(=O)[C@H](CO)NC(=O)[C@H](CC(C)C)NC(=O)[C@H](CC(=O)O)NC(=O)[C@H](CO)NC(=O)[C@@H](NC(=O)[C@H](Cc1ccccc1)NC(=O)[C@@H](NC(=O)CNC(=O)[C@H](CCC(N)=O)NC(=O)[C@@H](CO)NC(=O)[C@@H](N)Cc1c[nH]cn1)[C@@H](C)O)[C@@H](C)O)[C@@H](C)CC)C(N)=O)C(=O)O
B2: SEQ ID NO: (90) (peptide)
peptide: H[dS]QGTFTSDLSKQMESRRAQDFIEWLKSGGPSSGAPPPS[Dap]([γGlu-Palmitoyl])-NH2
modifications: N-terminus assumed
SMILES: CCCCCCCCCCCCCCCC(=O)N[C@@H](CCC(=O)NC[C@H](NC(=O)[C@H](CO)NC(=O)[C@@H]1CCCN1C(=O)[C@@H]1CCCN1C(=O)[C@@H]1CCCN1C(=O)[C@H](C)NC(=O)CNC(=O)[C@H](CO)NC(=O)[C@H](CO)NC(=O)[C@@H]1CCCN1C(=O)CNC(=O)CNC(=O)[C@H](CO)NC(=O)[C@H](CCCCN)NC(=O)[C@H](CC(C)C)NC(=O)[C@H](Cc1c[nH]c2ccccc12)NC(=O)[C@H](CCC(=O)O)NC(=O)[C@@H](NC(=O)[C@H](Cc1ccccc1)NC(=O)[C@H](CC(=O)O)NC(=O)[C@H](CCC(N)=O)NC(=O)[C@H](C)NC(=O)[C@H](CCCNC(=N)N)NC(=O)[C@H](CCCNC(=N)N)NC(=O)[C@H](CO)NC(=O)[C@H](CCC(=O)O)NC(=O)[C@H](CCSC)NC(=O)[C@H](CCC(N)=O)NC(=O)[C@H](CCCCN)NC(=O)[C@H](CO)NC(=O)[C@H](CC(C)C)NC(=O)[C@H](CC(=O)O)NC(=O)[C@H](CO)NC(=O)[C@@H](NC(=O)[C@H](Cc1ccccc1)NC(=O)[C@@H](NC(=O)CNC(=O)[C@H](CCC(N)=O)NC(=O)[C@@H](CO)NC(=O)[C@@H](N)Cc1c[nH]cn1)[C@@H](C)O)[C@@H](C)O)[C@@H](C)CC)C(N)=O)C(=O)O
B3: SEQ ID NO: (91) (peptide)
peptide: H[dS]QGTFTSDLSKQMESRRARLFIEWLKSGGPSSGAPPPSK([γGlu-Palmitoyl])-NH2
modifications: N-terminus assumed
SMILES: CCCCCCCCCCCCCCCC(=O)N[C@@H](CCC(=O)NCCCC[C@H](NC(=O)[C@H](CO)NC(=O)[C@@H]1CCCN1C(=O)[C@@H]1CCCN1C(=O)[C@@H]1CCCN1C(=O)[C@H](C)NC(=O)CNC(=O)[C@H](CO)NC(=O)[C@H](CO)NC(=O)[C@@H]1CCCN1C(=O)CNC(=O)CNC(=O)[C@H](CO)NC(=O)[C@H](CCCCN)NC(=O)[C@H](CC(C)C)NC(=O)[C@H](Cc1c[nH]c2ccccc12)NC(=O)[C@H](CCC(=O)O)NC(=O)[C@@H](NC(=O)[C@H](Cc1ccccc1)NC(=O)[C@H](CC(C)C)NC(=O)[C@H](CCCNC(=N)N)NC(=O)[C@H](C)NC(=O)[C@H](CCCNC(=N)N)NC(=O)[C@H](CCCNC(=N)N)NC(=O)[C@H](CO)NC(=O)[C@H](CCC(=O)O)NC(=O)[C@H](CCSC)NC(=O)[C@H](CCC(N)=O)NC(=O)[C@H](CCCCN)NC(=O)[C@H](CO)NC(=O)[C@H](CC(C)C)NC(=O)[C@H](CC(=O)O)NC(=O)[C@H](CO)NC(=O)[C@@H](NC(=O)[C@H](Cc1ccccc1)NC(=O)[C@@H](NC(=O)CNC(=O)[C@H](CCC(N)=O)NC(=O)[C@@H](CO)NC(=O)[C@@H](N)Cc1c[nH]cn1)[C@@H](C)O)[C@@H](C)O)[C@@H](C)CC)C(N)=O)C(=O)O
B4: SEQ ID NO: (92) (peptide)
peptide: H[dS]QGTFTSDLSKQMESRRAQDFIEWLKEGGPSSGRPPPSK([γGlu-Palmitoyl])-NH2
modifications: N-terminus assumed
SMILES: CCCCCCCCCCCCCCCC(=O)N[C@@H](CCC(=O)NCCCC[C@H](NC(=O)[C@H](CO)NC(=O)[C@@H]1CCCN1C(=O)[C@@H]1CCCN1C(=O)[C@@H]1CCCN1C(=O)[C@H](CCCNC(=N)N)NC(=O)CNC(=O)[C@H](CO)NC(=O)[C@H](CO)NC(=O)[C@@H]1CCCN1C(=O)CNC(=O)CNC(=O)[C@H](CCC(=O)O)NC(=O)[C@H](CCCCN)NC(=O)[C@H](CC(C)C)NC(=O)[C@H](Cc1c[nH]c2ccccc12)NC(=O)[C@H](CCC(=O)O)NC(=O)[C@@H](NC(=O)[C@H](Cc1ccccc1)NC(=O)[C@H](CC(=O)O)NC(=O)[C@H](CCC(N)=O)NC(=O)[C@H](C)NC(=O)[C@H](CCCNC(=N)N)NC(=O)[C@H](CCCNC(=N)N)NC(=O)[C@H](CO)NC(=O)[C@H](CCC(=O)O)NC(=O)[C@H](CCSC)NC(=O)[C@H](CCC(N)=O)NC(=O)[C@H](CCCCN)NC(=O)[C@H](CO)NC(=O)[C@H](CC(C)C)NC(=O)[C@H](CC(=O)O)NC(=O)[C@H](CO)NC(=O)[C@@H](NC(=O)[C@H](Cc1ccccc1)NC(=O)[C@@H](NC(=O)CNC(=O)[C@H](CCC(N)=O)NC(=O)[C@@H](CO)NC(=O)[C@@H](N)Cc1c[nH]cn1)[C@@H](C)O)[C@@H](C)O)[C@@H](C)CC)C(N)=O)C(=O)O

Biological target: human GLP-1 receptor (human, UniProt P43220 24-463)
Experiment: cell-based or functional assay

Going from B1 to HSQGTFTSDLSKQMEERRAQDFIEWLKNGGPSSGAPPPS-NH2 [SEQ ID NO: (15)], the “EC50 hGLP-1R (cAMP formation)” value rises from 0.0051 nM to 0.0352 nM (6.9-fold).

H[dS]QGTFTSDLSKQMESRRAQDFIEWLKSGGPSSGAPPPS[Dab]([γGlu-Palmitoyl])-NH2 [SEQ ID NO: (89)] and B2 are within 1.5-fold of each other in “EC50 hGLP-1R (cAMP formation)” value: 0.0059 nM for the first, 0.0049 nM for the second.

B3 and B4 are within 1.5-fold of each other in “EC50 hGLP-1R (cAMP formation)” value: 0.0067 nM for the first, 0.006 nM for the second.

First: H[dS]QGTFTSDLSKQMESRRAQDFIEWLKSGGPSSGAPPPSK([γGlu-aleuritolyl])-NH2 [SEQ ID NO: (93)]
Second: H[dS]QGTFTSDLSKQMESRRAQDFIEWLKSGGPSSGAPPPSK([γGlu-γGlu-Palmitoyl])-NH2 [SEQ ID NO: (97)]
The “EC50 hGLP-1R (cAMP formation)” value of the first is 40-fold higher: 0.188 nM for the first, 0.0047 nM for the second.

Biological target: human glucagon receptor (human, UniProt P47871 26-477)
Experiment: cell-based or functional assay

Chain of human glucagon receptor (P47871 26-477): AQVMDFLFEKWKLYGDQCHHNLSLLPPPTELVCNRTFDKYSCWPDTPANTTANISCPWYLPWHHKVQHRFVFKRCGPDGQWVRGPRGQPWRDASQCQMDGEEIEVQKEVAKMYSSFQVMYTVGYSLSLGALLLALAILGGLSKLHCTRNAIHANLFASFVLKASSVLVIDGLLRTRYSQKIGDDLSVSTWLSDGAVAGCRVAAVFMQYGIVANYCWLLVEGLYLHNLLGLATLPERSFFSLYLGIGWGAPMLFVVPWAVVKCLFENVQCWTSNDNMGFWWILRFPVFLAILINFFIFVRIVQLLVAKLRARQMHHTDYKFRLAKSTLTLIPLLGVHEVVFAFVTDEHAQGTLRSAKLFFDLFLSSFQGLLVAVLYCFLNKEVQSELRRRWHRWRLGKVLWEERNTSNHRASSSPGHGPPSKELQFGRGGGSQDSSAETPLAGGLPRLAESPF

Going from B1 to HSQGTFTSDLSKQMEERRAQDFIEWLKNGGPSSGAPPPS-NH2 [SEQ ID NO: (15)], the “EC50 hGlucagonR (cAMP formation)” value rises from 0.0182 nM to 0.538 nM (30-fold).

Going from H[dS]QGTFTSDLSKQMESRRAQDFIEWLKSGGPSSGAPPPS[Dab]([γGlu-Palmitoyl])-NH2 [SEQ ID NO: (89)] to B2, the “EC50 hGlucagonR (cAMP formation)” value rises from 0.0198 nM to 0.0336 nM (1.7-fold).

Going from B3 to B4, the “EC50 hGlucagonR (cAMP formation)” value falls from 0.121 nM to 0.038 nM (3.2-fold).

Compared with H[dS]QGTFTSDLSKQMESRRAQDFIEWLKSGGPSSGAPPPSK([γGlu-aleuritolyl])-NH2 [SEQ ID NO: (93)], H[dS]QGTFTSDLSKQMESRRAQDFIEWLKSGGPSSGAPPPSK([γGlu-γGlu-Palmitoyl])-NH2 [SEQ ID NO: (97)] is 52-fold lower in “EC50 hGlucagonR (cAMP formation)” value: 1.87 nM for the first, 0.0363 nM for the second.
